Results reported in article PMC12153337, “A temperature-driven DNA discrimination strategy to distinguish E. coli DNA and phage 5hmC-modified DNA” (Nucleic Acids Research, 2025).

Tests used:
[1] = molecular target: the molecule itself; experiment: native gel or EMSA; native gel electrophoresis of purified DexA after SEC, room temperature
[2] = molecular target: the molecule itself; experiment: SEC; Superdex 200 HiLoad 26/600, PBS buffer, room temperature 22°C; size estimated from the elution volume
[3] = molecular target: the molecule itself; experiment: cryo-EM structure; single-particle cryo-EM, 2D classification of conformers; 5 μM, incubated at 37°C for 1 h
[4] = molecular target: the molecule itself; experiment: SEC-MALS; Superdex 75 10/300 GL, 0.5 ml/min, 25°C

B1: bacteriophage T4 exonuclease DexA (enzyme, UniProt P04536 1-227, looked up)
chain: MFDFIIDFETMGSGEKAAVIDLAVIAFDPNPEVVETFDELVSRGIKIKFDLKSQKGHRLFTKSTIEWWKNQSPEARKNIAPSDEDVSTIDGIAKFNDYINAHNIDPWKSQGWCRGMSFDFPILVDLIRDIQRLNGVSENELDTFKLEPCKFWNQRDIRTRIEALLLVRDMTTCPLPKGTLDGFVAHDSIHDCAKDILMMKYALRYAMGLEDAPSEEECDPLSLPTKR
notes: DexA (dexA gene product), 3'-5' exonuclease of bacteriophage T4, amplified from the T4 genome; 26.0 kDa per monomer; Exists in a dimer-tetramer equilibrium that depends on temperature, so copies is left empty; also called ExoD; wild-type DexA; source: E. coli BL21(DE3), pET46, purified (Ni-NTA, SEC)
stoichiometry N [1]: 4
stoichiometry N [2]: ≥ 2
stoichiometry N [3]: 2

B2: DexA^D181A/S72A (enzyme, bacteriophage T4, UniProt P04536 1-227, looked up)
chain: MFDFIIDFETMGSGEKAAVIDLAVIAFDPNPEVVETFDELVSRGIKIKFDLKSQKGHRLFTKSTIEWWKNQAPEARKNIAPSDEDVSTIDGIAKFNDYINAHNIDPWKSQGWCRGMSFDFPILVDLIRDIQRLNGVSENELDTFKLEPCKFWNQRDIRTRIEALLLVRDMTTCPLPKGTLAGFVAHDSIHDCAKDILMMKYALRYAMGLEDAPSEEECDPLSLPTKR
notes: DexA of bacteriophage T4 with D181A and S72A, made by site-directed mutagenesis of the dexA plasmid; Full length is said of the native protein only; the mutant was made from the same plasmid; also called contact 1 mutant; source: E. coli BL21(DE3), pET46, purified (Ni-NTA, SEC)
binding result [4]: binds

B3: DexA^S87A/D90A (enzyme, bacteriophage T4, UniProt P04536 1-227, looked up)
chain: MFDFIIDFETMGSGEKAAVIDLAVIAFDPNPEVVETFDELVSRGIKIKFDLKSQKGHRLFTKSTIEWWKNQSPEARKNIAPSDEDVATIAGIAKFNDYINAHNIDPWKSQGWCRGMSFDFPILVDLIRDIQRLNGVSENELDTFKLEPCKFWNQRDIRTRIEALLLVRDMTTCPLPKGTLDGFVAHDSIHDCAKDILMMKYALRYAMGLEDAPSEEECDPLSLPTKR
notes: DexA of bacteriophage T4 with S87A and D90A, made by site-directed mutagenesis of the dexA plasmid; Full length is said of the native protein only; the mutant was made from the same plasmid; also called dimeric mutant; contact 2 mutant; source: E. coli BL21(DE3), pET46, purified (Ni-NTA, SEC)
stoichiometry N [4]: 2
